Experimental data published in patent US20230149522A1, “POLYPEPTIDE FOR THE PROPHYLAXIS AND TREATMENT OF VIRAL INFECTIONS” (priority 2020, published 2023).
Where two headings read alike, the source gives them in different places.

B1: LD6 (protein)
chain: ESGKATSYAELCNEYRKLVRNGKLACTRENDPIQGPDGKVHGNTCSMCEVFFQAEEEEKKKKEGESRNKR
modifications: human
B2: LD2/3 (protein)
chain: ARHLARAPKATAPTELNCDDFKKGERDGDFICPDYYEAVCGTDGKTYDNRCALCAENAKTGSQIGVKSEGECKSSNPEQDVCSAFRPFVRDGRLGCTRENDPVLGPDGKTHGNKCAMCAELFLKEAENAKREGETRIRRN
modifications: human
B3: LD15 (protein)
chain: EEDSPDSFSSLDSEMCKDYRVLPRIGYLCPKDLKPVCGDDGQTYNNPCMLCHENLIRQTNTHIRSTGKCEESSTPGTTAASMPPSDE
modifications: human

Key:
[1] = system: LV(Luc)-MLV
[2] = system: LV(Luc)-CoV-2; assay: microbe, parasite or virus in culture; details: Severe acute respiratory syndrome coronavirus 2, Caco-2, read-out: IC50 LV(Luc)-CoV-2
[3] = system: VSV(Luc-eGFP)-CoV-2; assay: microbe, parasite or virus in culture; details: Vesicular stomatitis virus, Caco-2, read-out: IC50 VSV(Luc-eGFP)-CoV-2
[4] = system: LV(Luc)-G; assay type: cell-based, Vesicular Stomatitis Virus
[5] = system: VSV(Luc-eGFP)-G
[6] = system: LV(Luc)-CoV-2
[7] = system: VSV(Luc-eGFP)-CoV-2
[8] = system: Caco2 (colorectal carcinoma cells)
[9] = system: Caco2 (colorectal carcinoma cells); remark: listed apart in the source
[10] = read-out: IC50 VSV(Luc-eGFP)-CoV-2

| Molecule | IC50 LV(Luc)-MLV [1] | IC50 [2] [nM] | IC50 [3] [nM] | IC50 LV(Luc)-G [4] | IC50 ([1]; 1 h) [nM] | IC50 ([5]; 2 h) [nM] | IC50 ([6]; 1 h) [nM] | IC50 ([7]; 2 h) [nM] | toxicity at the concentrations tested [8] | toxicity at the concentrations tested [9] | IC50 ([5]; read-out: IC50 VSV(Luc-eGFP)-G) [nM] | IC50 ([6]; read-out: IC50 LV(Luc)-CoV-2) [nM] | IC50 [7, 10] [nM] | IC50 [4] [nM] | IC50 ([1]; read-out: IC50 LV(Luc)-MLV) [nM] |
| --- | --- | --- | --- | --- | --- | --- | --- | --- | --- | --- | --- | --- | --- | --- | --- |
| CN(C)C(=O)COC(=O)Cc1ccc(OC(=O)c2ccc(NC(=N)N)cc2)cc1 [CM, camostat mesilate, reference compound] | unstable | 242 | 87.5 | unstable | – | – | – | – | – | – | – | – | – | – | – |
| CC[C@H](C)[C@H](NC(=O)[C@H](C)NC(=O)[C@H](CCC(=O)O)NC(=O)[C@H](CCC(=O)O)NC(=O)[C@H](CC(C)C)NC(=O)[C@H](CCCCN)NC(=O)[C@H](CCCCN)NC(=O)[C@H](CCSC)NC(=O)[C@H](CCC(=O)O)NC(=O)[C@H](Cc1ccc(O)cc1)NC(=O)[C@H](CCC(=O)O)NC(=O)[C@H](CC(C)C)NC(=O)[C@H](CC(=O)O)NC(=O)[C@H](CC(C)C)NC(=O)[C@H](Cc1ccccc1)NC(=O)[C@@H](NC(=O)[C@@H](NC(=O)[C@H](CC(N)=O)NC(=O)[C@@H](NC(=O)[C@H](CCC(N)=O)NC(=O)[C@H](CC(=O)O)NC(=O)[C@H](CC(C)C)NC(=O)[C@@H](N)CO)[C@@H](C)CC)C(C)C)[C@@H](C)O)C(=O)N[C@@H](CCCCN)C(=O)N[C@@H](CCCCN)C(=O)N[C@@H](CC(C)C)C(=O)N[C@@H](CCC(=O)O)C(=O)N[C@@H](CCC(=O)O)C(=O)N[C@@H](CO)C(=O)N[C@@H](Cc1ccc(O)cc1)C(=O)N[C@H](C(=O)N[C@@H](CC(=O)O)C(=O)N[C@@H](CC(C)C)C(=O)N[C@@H](CCCCN)C(=O)N[C@@H](CCC(=O)O)C(=O)N[C@@H](CC(C)C)C(=O)O)[C@@H](C)CC [EK1, reference compound] | – | – | – | – | > 20000 | > 20000 | 82.4 | 281 | – | – | – | – | – | – | – |
| B1 | unstable | – | – | – | – | – | – | – | toxic at the (two) maximum concentrations tested | toxic at the (two) maximum concentrations tested | 1610 | 1030 | 4090 | 2150 | – |
| B2 | – | – | – | – | – | – | – | – | toxic at the (two) maximum concentrations tested | – | 257 | 181 | 411 | 128 | 343 |
| B3 | – | – | – | – | – | – | – | – | toxic at the (two) maximum concentrations tested | – | 1020 | 956 | 1850 | 545 | 1270 |
